Assay results as given in article PMC6823310, “XszenFHal, a novel tryptophan 5-halogenase from Xenorhabdus szentirmaii” (AMB Express, 2019).

Substrate: N[C@@H](Cc1c[nH]c2ccccc12)C(=O)O
Test: initial rates of chlorination by UHPLC-UV, Michaelis-Menten fit
Format: biochemical, Xenorhabdus szentirmaii
Settings: 20 mM NaCl, 0.05 mM NADH, 0.01 mM FAD, flavin reductase K12Fre 0.1 μM, phosphate pH 7.5, 25 °C

B1: XszenFHal (FHal16) (Xenorhabdus szentirmaii DSM 16338) (protein)
chain: MINSVLIVGGGTAGWMTAAYLSKAFDKNINITVVESKEVKKIGVGEATFSTVRHYFDYLGLNESEWLPECSGSYKLGIRFENWDGQGNHFYHPFERWEVVKGFPISEWWLSKKLKDQRFDYDTFLTPHLCEAKRSPRRLDGSLFAQSIDKSLGQSTLAEQRAQYPYAYHFDADGVASFLKRYAMNRGVKHIEDDVTHVEIDTNGNIGYLEAKIYGKLRADLYIDCTGFKGLLINKALNEPFISFSDVLKNNRAVALRVPRENENDIEPYTTARTMSNGWRWTIPLYKRNGYGYVYCNKYQSPEEAEMELRKSIPYENAECVANHIRMRIGRSNRSWVKNCVAIGLSSAFVEPLESTGIFFIQHGIEQLVRFFPRSSGNELLIEEYNTRVNRVVDGVKEFLLLHFSLAQRNDTLYWKEWKNVELPKELLKKITLAQDHLLDKETIYPFYHGFEEYSWNTMILGLCSGSLNNKPALSLMTSDEADEMLLQHYMKAENMVNNLPTCYEYLKHIHDLKNKN
notes: N-terminal His tag (modified pET22b(+)), expressed in E. coli BL21-CodonPlus (DE3)-RIPL
With B1 the Km was 58.22 µM and the kcat was 0.074 s⁻¹.
